B1: reference peptide Q2a (Ac-MSIEEIQKQQAAIQKQIAAIQKQIYRMTP-NH2) (peptide)
peptide: Ac-MSIEEIQKQQAAIQKQIAAIQKQIYRMTP-NH2
notes: Synthetic peptide; Three copies associate non-covalently into a parallel alpha-helical coiled coil; also called untagged peptide
B2: Q2aI peptide (Ac-MSIEEIQKQIAAIQKQIAAIQKQIYRMTP-NH2) (peptide)
peptide: Ac-MSIEEIQKQIAAIQKQIAAIQKQIYRMTP-NH2
notes: Synthetic peptide; also called untagged peptide

What was measured:
[1] = target: the molecule itself; assay: self-association of the peptide chains into a homotrimer; CD thermal unfolding curve fitted to a monomer-trimer equilibrium
Procedure: The said synthesized peptide was dissolved at a concentration of 292 microM in 20 mM phosphate buffer (PBS), 150 mM NaCl, pH 7.2. The CD spectra were measured between […], at 5 and 90 degrees Celsius (FIG. 3). The spectrum at 5 degrees Celsius was indicative of a high alpha-helical secondary structure content, in agreement with the expectation that all heptad regions, but not all of the flanking residues, would assemble as alpha-helical coiled coils.
To analyse whether the temperature-induced transition between helical and nonhelical states was reversible, a forward (up) and backward (down) thermal scan was performed on the same sample, by recording the CD signal at […] as a function of temperature at a scanning rate of about 1 degree Celsius per minute (FIG. 4). It was observed that the up and down scans almost perfectly coincided, thereby confirming the quantitative unfolding and refolding of the peptides in the sample.
FIG. 5 represents fitting of a theoretic equation for trimeric association to experimental data. The experimental data are taken from FIG. 4, curve labeled “UP”. The theoretic equations used are listed supra. The fitted parameters (fitting results) are listed at the right in FIG. 5. “Transit. T” corresponds to Tₜ, but is expressed here in degrees Celsius. The parameter “delta Cₚ” was kept constant at 3.0 kJ mol⁻¹ K⁻¹. […]

[2] = target: the molecule itself; assay: self-association of the peptide chains into a homotrimer; sedimentation equilibrium ultracentrifugation

Protein | binding result [1] | binding result [2]
B1 | binds | 
B2 |  | binds

Source: US20100305304A1 (COMPLIX, published 2010)
